Test results taken from article PMC9527255, “Structure of the TnsB transposase-DNA complex of type V-K CRISPR-associated transposon”.

How the values were obtained:
[1] = target: Scytonema hofmannii TnsB transposase (type V-K CRISPR-associated transposon) (Scytonema hofmannii (UTEX 2349)); assay: cryo-EM structure; 40 uM shTnsB with 10 uM STC DNA in 50 mM HEPES pH 7.5, 300 mM NaCl, 5 mM MgCl2, 1 mM TCEP, 30 min at 37 C; post-catalytic strand-transfer complex, 2.46 A
[2] = target: Scytonema hofmannii TnsB transposase (type V-K CRISPR-associated transposon) (Scytonema hofmannii (UTEX 2349)); assay: SEC-MALS; shTnsB mixed with the reconstituted strand-transfer complex (STC) DNA; the high MW peak at 358.7 kDa holds the STC DNA and shTnsB
shTnsB [3] = target: T1, shTnsB (Scytonema hofmannii UTEX 2349, UniProt PDB:8AA5_1 1-596); assay: cryo-EM structure (2.4 Å); 5 mM MgCl2; TnsB tetramer; 50 mM HEPES pH 7.5, 300 mM NaCl, 5 mM MgCl2, 1 mM TCEP, 37 °C, 30 min; 6% DNA retardation gel; conditions: protein: recombinant; tags: C-terminal His6 (TEV treatment, tag removed); chain copies: 4; six strands: 1:2 1:3 (RE arm), 4:5 4:6 (LE arm); the arms pair through the 5 nt target between the insertion sites (1:4); 5' polyA overhangs on strands 2 and 5
T1 sequence: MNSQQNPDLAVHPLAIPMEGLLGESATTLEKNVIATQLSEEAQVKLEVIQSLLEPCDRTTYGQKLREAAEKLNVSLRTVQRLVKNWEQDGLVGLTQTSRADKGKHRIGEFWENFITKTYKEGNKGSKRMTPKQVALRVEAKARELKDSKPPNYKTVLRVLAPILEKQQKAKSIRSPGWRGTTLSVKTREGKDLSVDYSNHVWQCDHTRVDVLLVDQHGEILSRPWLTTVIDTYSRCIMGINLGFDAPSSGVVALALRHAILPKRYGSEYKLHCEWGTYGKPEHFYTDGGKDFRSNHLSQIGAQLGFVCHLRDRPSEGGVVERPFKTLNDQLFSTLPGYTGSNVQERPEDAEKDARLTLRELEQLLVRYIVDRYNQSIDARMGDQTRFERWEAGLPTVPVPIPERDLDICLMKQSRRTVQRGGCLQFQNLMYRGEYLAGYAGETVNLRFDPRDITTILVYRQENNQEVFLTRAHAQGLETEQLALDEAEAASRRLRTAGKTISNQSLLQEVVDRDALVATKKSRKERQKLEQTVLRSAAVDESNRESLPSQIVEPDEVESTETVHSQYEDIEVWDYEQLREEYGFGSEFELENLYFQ

shTnsB [4] = target: T1, shTnsB; assay: EMSA; 5 mM MgCl2; four bands, three sites expected; 50 mM HEPES pH 7.5, 300 mM NaCl, 5 mM MgCl2, 1 mM TCEP, 37 °C, 30 min; 6% DNA retardation gel; conditions: protein: recombinant; tags: C-terminal His6 (TEV treatment, tag removed); chain copies: 4; blunt

Question: What does the source list for “Scytonema hofmannii TnsB transposase (type V-K CRISPR-associated transposon) (enzyme)”?
Answer: stoichiometry N [1]: 4; stoichiometry N [2]: 4

B1: STC DNA (RE_Target, RE_polyA, Target_1, LE_Target, LE_polyA, Target_2) (structured_DNA)
DNA 1: ATAAGGATTTTACTGATGACAATAATTTGTCACAACGACATATAATTAGTCACTGTACACGTAGAGACGTAGCAATGCT
DNA 2: AAAAAAAAAAAAAAATGTACAGTGACTAATTATATGTCGTTGTGACAAATTATTGTCATCAGTAAAATCCTTAT
DNA 3: AGCATTGCTACGTCT
DNA 4: AATTAAATAGTCACAATGACATTAATCTGTCACCGACGACAGATAATTTGTCACTGTACACTACGCCTTTTGTGGAGATG
DNA 5: AAAAAAAAAAAAAAATGTACAGTGACAAATTATCTGTCGTCGGTGACAGATTAATGTCATTGTGACTATTTAATT
DNA 6: CATCTCCACAAAAGG
Question: Does B1 bind (shTnsB [3])?
Answer: binds

B2: LE (dsDNA)
DNA 1: ATTATATTGATGACATTTAATTTGTCATCAATTAATTAAGCAACGCTGATGGGTCACGACGACAATTAAATAGTCACAATGACATTAATCTGTCACCGACGACAGATAATTTGTCACTGTACACTACGCCTTTTGTGG
DNA 2: CCACAAAAGGCGTAGTGTACAGTGACAAATTATCTGTCGTCGGTGACAGATTAATGTCATTGTGACTATTTAATTGTCGTCGTGACCCATCAGCGTTGCTTAATTAATTGATGACAAATTAAATGTCATCAATATAAT
Question: Does B2 bind (shTnsB [4])?
Answer: binds
